Experimental data: patent publication US12611443B2, “Methods and compositions related to therapeutic peptides for cancer therapy” (THE UNIVERSITY OF CHICAGO, priority 2018, dated 2026)
Entries after “also recorded” stand apart in the source; their conditions may differ.

Tests used:
[1] = test system: Human monocyte-derived macrophages (HMDMs); assay: Cell viability of HMDMs treated with purified ELANE or ECP; assay type: cell-based
Experimental: Primary human blood-derived cells.
In vitro cell viability assays. […] Luminescence was measured using a Victor X3 luminometer (PerkinElmer).

[2] = Assessment of potential side-effects in tumor-free C57BL/6 mice; assay type: in vivo
Experimental: (§1) Assessment of potential side-effects. ELANE or PMSF-ELANE (11.6 μg/100 μL) were injected into the 4th mammary fat pad of the right ventral side pad of tumor-free C57BL/6 mice once/day for 5 days. One day after the last injection, mice were studied for potential side-effects. Body weight and spleen weight were measured. Apoptosis at the injection site was studied by isolating, fixing, and staining mammary adipose tissue for TUNEL, cCASP3, and cPARP using identical methods described for tumors above. Mammary adipose tissue immune cell populations at the injection site were determined by flow cytometry using identical methods described for tumors above. Liver function was assessed by measuring plasma ALT activity with the Alanine Transaminase Colorimetric Activity Assays Kit (Cayman Chemical).

[3] = test system: survival, stress, and apoptosis pathways in normal or non-cancer cells; assay: Killing program in normal or non-cancer cells; assay type: cell-based
Experimental: Western Blot Analysis. Cells were lysed with 1% SDS containing protease and phosphatase inhibitors (Sigma), and protein was quantified with the BCA Protein Assay Kit (Pierce). Proteins (10-20 μg) were resolved on 10%, 12.5%, 15%, or 20% SDS-PAGE gels depending on the target protein, transferred to PVDF membranes (Millipore), blocked with 5% BSA (Sigma) in 0.1% TBS/Tween-20 at RT for 2 hrs, stained with primary and secondary antibodies, and visualized using the ECL detection kit (Biorad) and a LI-COR imager. Antibodies—Antibodies against pERK (4370), ERK (4695), pNFκB (3033), NFκB (8242), pJNK (4668), JNK (9252), CASP3 (9662), PARP (9542), H2AX (2595), TUBB (2125) were from Cell Signaling Technology. Antibodies against γH2AX (05-636-I, Millipore), ELANE (68672, Abcam), N-terminal CD95 (3070R, BioVision), and C-terminal CD95 (60196, Proteintech).
Mitochondrial ROS measurements. Cells were treated with various doses of ELANE for 30 min, washed, labeled with the CM-H2DCFDA dye (ThermoFisher Scientific, 10 μM) for 30 min at 37° C., and fluorescence was quantified by flow cytometry.

CD95 = CD95 cleavage in cancer cells by western blotting; assay type: cell-based
Experimental: FIGS. 1A-1K. ELANE cleaves CD95 to selectively kill cancer cells. (A): Heatmap summary of ELANE's effects on survival, stress, and apoptosis pathways in cancer cells and healthy cells. (B-C): Cancer cells were treated with ELANE (100 nM) and CD95 cleavage was assessed by western blotting using anti-N-terminal (B) or anti-C-terminal antibodies (C). *, lower molecular weight CD95 fragment. (D): Cancer cells or non-cancer cells were transduced to overexpress CD95 proteins, and effects on ELANE-mediated apoptosis were quantified by ANXAS at 30 min. n=2/group. See FIG. 1I for transduction and CD95 over-expression. (E): Cleavage of recombinant human CD95 N-terminal (aa 1-173) or C-terminal (aa 212-335) proteins by ELANE was assessed by SDS-PAGE and Coomassie blue staining. (F): Bands from (E) were digested with trypsin and analyzed by mass spectrometry to identify putative ELANE cleavage sites (i.e., peptides with non-tryptic ends). Major non-tryptic peptides were quantified by ion chromatograms. (G): Schematic of ELANE cleavage sites in CD95. […] (H): Cleavage of recombinant peptides corresponding to aa 214-231 and aa 317-335 in CD95 by ELANE was monitored by mass spectrometry. […] Effect of Dynasore on cancer cell killing capability of ELANE (measured by calcein-AM). n=6/group. […]

hCD95 = assay: Cleavage of recombinant human CD95 proteins/peptides by ELANE (SDS-PAGE, mass spectrometry); assay type: biochemical; conditions: recombinant aa 1-173 and aa 212-335
Experimental: Identification of ELANE cleavage sites in CD95 by mass spectrometry. Recombinant human C-terminal CD95 (aa 212-335, MyBioSource, 10 μg) or recombinant N-terminal CD95 (aa 1-173, ThermoFisher Scientific, 10 μg) were digested with human ELANE (0.1 μg) for 2 h at 37° C., and reactions were stopped with SDS-PAGE loading buffer. Proteins were run on 20% SDS-PAGE gels, stained with Coomassie Blue (ThermoFisher Scientific), and bands were excised for mass spectrometric analyses. Proteins were extracted from excised bands.
Analysis of recombinant peptides by mass spectrometry. Recombinant peptides (10 μM) corresponding to aa 214-([…])-231 (SEQ ID NO:6) or 317-([…])-335 (SEQ ID NO:7) of human CD95 (ThermoFisher Scientific) were incubated with ELANE (0.1-0.2 μM) at 37° C. for 15-30 min. Reactions were stopped with 0.1% formic acid.

cancer cells = assay: ELANE internalization by cancer cells and effect of endocytosis inhibitor; assay type: cell-based; conditions: cancer cell lysates, 30 mins
Experimental: FIGS. 1A-1K. ELANE cleaves CD95 to selectively kill cancer cells. (A): Heatmap summary of ELANE's effects on survival, stress, and apoptosis pathways in cancer cells and healthy cells. (B-C): Cancer cells were treated with ELANE (100 nM) and CD95 cleavage was assessed by western blotting using anti-N-terminal (B) or anti-C-terminal antibodies (C). *, lower molecular weight CD95 fragment. (D): Cancer cells or non-cancer cells were transduced to overexpress CD95 proteins, and effects on ELANE-mediated apoptosis were quantified by ANXAS at 30 min. n=2/group. See FIG. 1I for transduction and CD95 over-expression. (E): Cleavage of recombinant human CD95 N-terminal (aa 1-173) or C-terminal (aa 212-335) proteins by ELANE was assessed by SDS-PAGE and Coomassie blue staining. (F): Bands from (E) were digested with trypsin and analyzed by mass spectrometry to identify putative ELANE cleavage sites (i.e., peptides with non-tryptic ends). Major non-tryptic peptides were quantified by ion chromatograms. (G): Schematic of ELANE cleavage sites in CD95. […] (H): Cleavage of recombinant peptides corresponding to aa 214-231 and aa 317-335 in CD95 by ELANE was monitored by mass spectrometry. (I): Cancer cells or non-cancer cells were treated with fluorescein-labeled ELANE for 10 min and uptake was visualized by immunofluorescence. (J): ELANE catalytic activity in cancer cell lysates following exposure to ELANE for 30 mins in the presence and absence of Dynasore (60 μM endocytosis inhibitor). Effect of Dynasore on cancer cell killing capability of ELANE (measured by calcein-AM). n=6/group. (K): Cancer cells or non-cancer cells were transduced to overexpress various CD95 proteins, and cell viability in the absence of ELANE was determined by calcein-AM. n=10/group. *, p<0.05 Student's t-test.

MDA-MB-231 cells = assay: Resistance to ELANE, repeated exposure in vitro; assay type: cell-based, human; conditions: 7 exposures, ˜90% death/exposure
Source text: (§2) To explore whether cancer cells could acquire resistance to ELANE, a combination of in vitro and in vivo approaches were used.

tumor immune cells = assay: Tumor immune cell analysis by flow cytometry; assay type: in vivo, mice
Experimental: Tumor immune cell analysis. […] Cells were labeled with various antibodies and analyzed by flow cytometry. Data were quantified by FlowJo v.10.4.1. Antibodies included: CD45 (47-0451), CD11b (25-0112), MHCII (11-5321), CD4 (17-0041), CD8 (12-0081), CD44 (25-0441) from ThermoFisher Scientific; CD3 (560527), CD62L (561917), from BD Biosciences, and Ly6G (127614) from BioLegend.
as §1

E0771 or MEL888 tumors = assay: Resistance to ELANE, repeated treatment of tumors in vivo and killing ex vivo; set-up: species or system mice; conditions: once/day for 7 days, isolated cancer cells ex vivo
Source text: as §2

ELANE: neutrophil elastase, a serine protease released by human PMNs
cell viability, purified protein [1]: did not kill Human monocyte-derived macrophages (HMDMs) | side effects ([2]; ELANE 12 μg/day into mammary fat pads): did not produce evident side effects | apoptosis at injection site ([2]; ELANE injected into tumor-free C57BL/6 mice): no evidence of apoptosis was found | killing program in normal or non-cancer cells [3]: did not induce this program in all normal or non-cancer cells tested | loss of full-length CD95 after cleavage (CD95): did not result in loss of full-length CD95 | CD95 cleavage in cancer cells (CD95; ELANE 100 nM): cleaved CD95 in all cancer cells tested | cleavage of CD95 N- or C-terminal domain (hCD95): preferentially cleaved the C-terminal domain; also recorded: degrades the C-terminal domain of purified CD95 | catalytic activity of internalized ELANE (cancer cells): retained its catalytic activity | acquired resistance after repeated exposure in vitro (MDA-MB-231 cells): did not confer resistance | immune cells at injection site of tumor-free mice (tumor immune cells; mammary fat pads of tumor-free mice): Immune cell increases were not observed | tumor immune cells (tumor immune cells; three immunocompetent models): increased the number of dendritic cells (DCs), CD8^+ T cells, and CD8^+ T effector cells (CD8^+Teff) in all three immunocompetent models tested | acquired resistance after repeated treatment in vivo (E0771 or MEL888 tumors): did not attenuate ELANE's ability to kill the isolated cancer cells ex vivo
